From the nanobody polyreactivity screen of Harvey et al. (2022)

Test: yeast display, Sf9 membrane polyspecificity reagent, FACS + sequencing; frameworks hold sequencing errors
Summary of the method: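 In a synthetic yeast display library (Saccharomyces cerevisiae BJ5465), nanobody expression was induced with galactose for 36–48 hours. FACS gates were set low and high (top ~1%) using anti-HA fluorescence for expression and streptavidin fluorescence for binding of the Sf9 membrane reagent. Each polyreactivity label is drawn from the gate of origin.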

Sequence	polyreactivity (PSR sort gate)
QVQLVESGGGLVQAGGSLRLSCAASGRTFSRYAMGWYRQAPGKERELVATINSRAGITNYADSVKGRFTISRDNAKNTVYLQMNSLKPEDTAVYYCAAKGVIISYDTLRYDYWGQATQVTVSS	high polyreactivity
QVQLVESGGGLVQAGGSLRLSCAASGRTFSSNAMGWYRQAPGKERELVASISFRGGRTYYADSVKGRFTISRDNAKNTVYLQMNSLKPEDTAVYYCVSGTKRTGYGYWGQGTQVTVSS	high polyreactivity
QVQLVESGGGLVQAGGSLRLSCAASGRTFSSNAMGWYRQAPGKERELVATITYSGGSTYYADSVKGRFTISRDNAKNTVYLQMNSLKPEDTAVYYCAVRVSTYITKYYYWGQGTQVTVSS	low polyreactivity
QVQLVESGGGLVQAGGSLRLSCAASGRTFSSNAMGWYRQAPGKERELVAVITRRGGSTYYADSVKGRFTISRDNAKNTVYLQMNSLKPEDTAVYYCATDAPPQRSGRRSAGQKYYYLGQGTQVTVSS	high polyreactivity
QVQLVESGGGLVQAGGSLRLSCAASGRTFSSNTMGWYRQAPGKERELVAAITKSGANTYYADSVKGRFTISRDNAKNTVYLQMNSLKPEDTAVYYCAAPGKVQRYYYWGQGTQVTVSS	high polyreactivity
QVQLVESGGGLVQAGGSLRLSCAASGRTFSSTAMGWYRPAPGKERELVATITYSGGSTYYADSVKGRFTISRDNAKNTVYLQMISLKPEDCAVYYGAVRVSTYMTKYYYWGQGTQVTVSS	low polyreactivity
QVQLVESGGGLVQAGGSLRLSCAASGRTFSSYTMGWYIQAPGKEMELVAAISWRGGSTYYADSVKGRFTISSDNAKNTVYLQMNSLKPEDTAVYYCAARSYLTPDYYYWGQGTQVNVSS	high polyreactivity
QVQLVESGGGLVQAGGSLRLSCAASGRTFSSYVMGWYRQAPGKERELVASISRRGGSTYYADSVKGRFTISRDNAKNTVYLQMNSLKPEDTAVYYCNADLRGFGRGTDQYIFDYWGQGTQVTVSS	high polyreactivity
QVQLVESGGGLVQAGGSLRLSCAASGRTFSTYAMGWYRQAPGKERELVAAITSSGTSTYYADSVKGRFTISRDNAKNTVYLQMNSLKPEDTAVYYCAAVTKRYLAYDYWGQGTQVTVSS	high polyreactivity
QVQLVESGGGLVQAGGSLRLSCAASGRTFSTYAMGWYRQAPGKERELVAAKSSGGGRTYYADSVKGRFTISRDNAKNTVYLQMNSLKPEDTAVYYCAADRYFRSRRSYEYWGQGTQVTVSS	low polyreactivity
QVQLVESGGGLVQAGGSLRLSCAASGRTFSVNAMGWYRQAPGKERELVAAISWDGGSTYYADSVKGRFTISRDNAKNTVYLQMNSLKPEDTAVYYCIKDLYYAYDYWGQGTQVNVSS	low polyreactivity
QVQLVESGGGLVQAGGSLRLSCAASGRTFSVNAMGWYRQAPGKERELVAAITSGASTNYADSVKGRFTMSRDNAKNTVYLQMNSLKPEDTAVYYCAADATYGHVPAEYDYWGQGTQVTVSS	low polyreactivity
QVQLVESGGGLVQAGGSLRLSCAASGRTFSVYAMGWYRQAPGKEREFVATISYSGVRTSYADSVKGRFTISRDNAKNTGYLQMNSLKPEDTAVYYCNARTYYPVYYRDGGYWGQGTQVTVSS	high polyreactivity
QVQLVESGGGLVQAGGSLRLSCAASGRTFSVYAMGWYRQAPGKERELVAVISYRDGTTYYADSVKGRFTISRDNAKNTVYLQMNSLKPEDTAVYYCAADFFSDFDWGQGTQVTVSS	low polyreactivity
QVQLVESGGGLVQAGGSLRLSCAASGRTFSVYAMGWYRQATGKEREFVAAISFSGGRTYYADSVKGRFTISRDNAKNTVYLQINSLKPEDTAVYYCAKRGSYYNPMGYWGQGTQVTVSS	high polyreactivity
QVQLVESGGGLVQAGGSLRLSCAASGRTFSVYTMGWYRQAPGKERELVAAISSTGRTNYADSVKGRFTISRDNAKNTVYLQMNSLKPEDTAVYYCNAGVRNSYTRQALVTAYYLYYYWGQGTQVTVSS	high polyreactivity
QVQLVESGGGLVQAGGSLRLSCAASGRTFSYNAMGWYRPAPGKERELVAVITYSGGSTYYADSVKGRFTISRDNAKNTVYLQMNSLKPEDTAVYYCNADGYRPYQNGYDYWGQGTQVTVSS	high polyreactivity
QVQLVESGGGLVQAGGSLRLSCAASGRTFSYNAMGWYRQAPGKERELVAAIDWSGGRTYYADSVKGRFTISRDNAKNTVYLQMNSLKPEDTAVYYCNKAVRSSYSAWQYGMYYWGQGTQVTVSS	high polyreactivity
QVQLVESGGGLVQAGGSLRLSCAASGRTFSYNAMGWYRQAPGKERELVARISSGGSTNYADSVKGRFTISRDNAKNTVYLQMNSLKPEDTAVYYCNAGSYVWEEDYCGQGTQVTVSS	high polyreactivity
QVQLVESGGGLVQAGGSLRLSCAASGRTFSYNAMGWYRQAPGKEWELVAAISWGGGSTYYADSVKGRFTISRDNAKNTVYLQMNSLKPEDTAVYYCAAKRLTSRQHDYWGQGTQVTVSS	high polyreactivity
QVQLVESGGGLVQAGGSLRLSCAASGRTFSYNVMGWYRQAPGKERELVASTYYADSVKGRFTISRDIAKNTVYLQMNSVKPEDTAVYYCNRDKPGLFFTSYNYSSSYDYWGQGTLVTVSS	low polyreactivity
QVQLVESGGGLVQAGGSLRLSCAASGRTFSYYAMGWYRKAPGKERELVASISGGGRTNYADSVKGRFTISRDNAKNTVYLQMNSLKPEDTAVYYCAARYLITRQYKRGYWGQGTQVTVSS	high polyreactivity

Sequence	polyreactivity (PSR sort gate)
QVQLVESGGGLVQAGGSLRLSCAASGRTFSYYAMGWYRQAPGKERELVASIRKSGASTYYADSVKGRFTISRDNAKNTVYLQMNSLKPEDTAVYYCAARGSRKPDWGLGYWGQGTQVTVSS	high polyreactivity
QVQLVESGGGLVQAGGSLRLSCAASGRTFSYYAMGWYRQAPGKERELVASISYSAGRTYYADSVKGRFTISRDNAKNTVYLQMNSLKPEDTAVYYCAVRGVRRFPVRTGSYTRYGDYYWGQGTQVTVSS	high polyreactivity
QVQLVESGGGLVQAGGSLRLSCAASGRTFSYYAMGWYRQAPGKERELVASITSGGRTYYADSVKGRFTISRDNAKNTFYLQMNSLKPEDTAVYYCNVDNQYLDRYGRRYGYWGQGTQVTVSS	low polyreactivity
QVQLVESGGGLVQAGGSLRLSCAASGRTFSYYAMGWYRQAPGKERELVATIRFSAGGTYYADSVKGRFTISRDNAKNTVYLQMNSLKPEDTAVYYCNADSIDPFLYDYWGQGTQVTVSS	low polyreactivity
QVQLVESGGGLVQAGGSLRLSCAASGRTFSYYAMGWYRQATGKERELVAAINSSGGRTYYADSVKGRFTISRDNAKNTVYLQMNSLKPEDTAVYYCAARSYSTSSHHGYWGQGTQVTVSS	high polyreactivity
QVQLVESGGGLVQAGGSLRLSCAASGRTFSYYGMGWYRKAPGKERELVAGISIRGSHTYYADSVKGRFTISRDNAKNTVFLQMNSLKPEDTGVYYCAARWIGLYSYEYWGQGSQVTVSS	high polyreactivity
QVQLVESGGGLVQAGGSLRLSCAASGRTFTANAMGWYRQAPGKERELVAAIRWRGGSTSYADSVKGRFTISRDNAKNTVYLQMNSLKPEDTAVYYCAAESRWRSSAGGYYYWGQGTQVTVSS	low polyreactivity
QVQLVESGGGLVQAGGSLRLSCAASGRTFTAYAMGWYRQAPGKERELVAAITSGGSTYYADSVKGRFTISRDNAKNTVYLQMNSLKPEDTAVYYCATDLYSFYWPEYEYWGQGTQVTVSS	low polyreactivity
QVQLVESGGGLVQAGGSLRLSCAASGRTFTDNAMGWYRQAPGKERELVAAISRRGGSTYYADSVKGRFTISRDNAKNTVYLQMNSLKPEDTAVYYCARASRDIRPYDYWGQGTQVTVSS	high polyreactivity
QVQLVESGGGLVQAGGSLRLSCAASGRTFTEYAMGWYRQAHGKERELVARISIGDSTYYADSVKGRFTISRDNAKNTVYLQMNSLKPEDTAVYYCNAEYSRSYRYDEGYWGQGTKVTVSS	low polyreactivity
QVQLVESGGGLVQAGGSLRLSCAASGRTFTGNAMGWYRPAPGKERELVADNNLSGGDTYYADSVKGRFTISRDNAKNTVYLQMNSLKPEDTAVYYCNARVRDKRTGRYGYWGQGTQVTVSS	high polyreactivity
QVQLVESGGGLVQAGGSLRLSCAASGRTFTGYNMGWYRQEPGKEREFVAAISSNGGRTYYADSVKGRFTISRDNAKNTVYLQMNSLKPEDTAVYYCAAPFTFWGQGTQVTVSS	high polyreactivity
QVQLVESGGGLVQAGGSLRLSCAASGRTFTGYVMGWYRQAPGKERELVAVIRYRGGGSYYADSVKGRFTISRDNAKNTVYLQMNSLKPEDTAVYYCARKRVYFGLWMYYWGHGTQVTVSS	high polyreactivity
QVQLVESGGGLVQAGGSLRLSCAASGRTFTIYARGWYRHAPGKERELVAAISSGSRTYYADSVKGRFTISRDNAKNTVYLQMNSLKPEDTAVYYCAASLTRHGYYRLFDYWGQGTQVTVSS	high polyreactivity
QVQLVESGGGLVQAGGSLRLSCAASGRTFTPYAMGWYRQAPGKERELVATISGGGSTHYADSVKGRFTISRDNAKNTVYIQRNSLKPEDTAVYYCSPSRDTVGRGPIQRDYWGQGTQVTVSS	low polyreactivity
QVQLVESGGGLVQAGGSLRLSCAASGRTFTPYAMGWYRQAPGKERELVATISSGTSTNYADSVKGRFTISRDNAKNTVYLQMNSLKPEDTAVYYCAADGYTYKFDYWGQGTQVTVSS	low polyreactivity
QVQLVESGGGLVQAGGSLRLSCAASGRTFTQNAMGWYRQATGKERELVASISSSGSTYADSVKGRFTISRDNAKNTVYLQMISLKPEDTAVNYCNAVGFQANDYNYWGQGTQVTVSS	low polyreactivity
QVQLVESGGGLVQAGGSLRLSCAASGRTFTRIAMGWYRPAPGKERELVAAIRWRGGGSTYYADSVKGRFTISRDNAKNTVYLQMNSLKPEDTAVYYCNARRYTGTGSAWYYYWGQGTQVTVSS	high polyreactivity
QVQLVESGGGLVQAGGSLRLSCAASGRTFTRYAMGWYRQAPGKERELVAAISVRAGITYYADSVKGRFTISRDNAKNTVYLQMNSLKPEDTAVYYCAAKDGRSYYDRTPMVYFGQGTQVTVSS	low polyreactivity
QVQLVESGGGLVQAGGSLRLSCAASGRTFTRYAMGWYRQAPGKERELVAAITIGDTTNYADSVKGRFTISRDNAKNTVYLQMNSLKPEDTAVYYCAAYVPRWSSYRRGGYWGQGTQVTVSS	high polyreactivity
QVQLVESGGGLVQAGGSLRLSCAASGRTFTRYPMGWYRQAPGKERELVAAITRGGSTYADSVKGRFTISRDNAKNTVYLQMNSLKPEDTAVYYCAAYWGFYPWRAYPYDYWGQGTQVTVSS	high polyreactivity
